Test results reported in article PMC5353646, “Allosteric modulation of peroxisomal membrane protein recognition by farnesylation of the peroxisomal import receptor PEX19” (Nature Communications, 2017).
Residue numbers refer to the chain shown, from its start. Numbers in names are those of the source. Entries after “also recorded” stand apart in the source; their conditions may differ. No end group written: not given here. *: point of attachment. FITC = O=C1OC2(c3ccc(O)cc3Oc3cc(O)ccc32)c2ccc(NC(=S)*)cc21; fluorescein = fluorescein label on the N-terminus

Columns and labels:
[1] = molecular target: FITC-labelled ALDP peptide (62-…-76) (human); experiment: fluorescence polarisation; 20 nM FITC-ALDP peptide constant, 12-point titration of PEX19 CTD variants from 1 mM to 0.5 uM; 50 mM Tris pH 8.0, 50 mM NaCl; triplicates
[2] = tested on: PEX19-deficient human fibroblasts (ΔPEX19 T); experiment: Functional complementation of PEX19-deficient fibroblasts (peroxisomal protein import); type: cell-based; details: full-length PEX19 variants, 72 h after transfection; for cells showing restored peroxisomal protein transport (functional complementation): at least 100 cells in three independent transfections, series of Fig. 3c
Excerpt: A bicistronic expression plasmid coding for eGFP-PTS1 and non-tagged PEX14 (pMF1220)[43] was kindly provided by Marc Fransen (Leuven, Belgium). pIRES2-HsPEX19-eGFP-PTS1 was constructed by replacing the open reading frame of PEX14 (BglII/SalI) with a DNA-cassette encoding the full-length open reading frame of human PEX19 as derived from BamHI/SalI digestion of pAH05 (ref. [44]). Single point mutations were introduced into the PEX19 sequence by Quickchange XL Site-directed Mutagenesis kit (Stratagene) using primer pairs (Supplementary Table 1). The bicistronic expression vectors coding for PEX19 variants and eGFP-PTS1 were transfected into the human cell-line ΔPEX19 T which was derived from PEX19-deficient Zellweger patient fibroblasts. ΔPEX19 T cells, characterized by a defect in peroxisome biogenesis were routinely authenticated by functional complementation assays as described below and checked for mycoplasma contamination using Venor GeM Advance Mycoplasm Detection Kit (Minerva Biolabs). The efficiency of transfection according to the Amaxa Cell Line Nucleofector Kit R protocol (Lonza Cologne AG) was always around 90%. After 72 h of transfection, cells were subjected to fluorescence and immunofluorescence microscopy using polyclonal antiserum against human PEX14 (ref. [45]) (1:400 diluted) or monoclonal antibodies against human PEX19 (BD Biosciences, MA5-17266 Thermo Scientific; 1:400 diluted). Statistical analysis was carried out from three independent transfections of each pIRES-PEX19-eGFP-PTS1 expression plasmid. Based on the appearance of eGFP-PTS1 fluorescence pattern, about 100 cells of each experiment were visually categorized into three classes, (i) full complementation of peroxisomal import as visualized by punctuate staining pattern, (ii) partial complementation as indicated by diffuse cytosolic staining with few dots, (iii) no complementation resulting in only cytosolic staining. All micrographs were recorded on a Zeiss Axioplan 2 microscope with a Zeiss Plan-Apochromat × 63/1.4 oil objective and an Axiocam MR digital camera, and were processed with AxioVision 4.6 software (Zeiss, Jena, Germany). The steady-state level of PEX19 expression was assessed by immunoblot analysis, using monoclonal mouse antibodies against HsPEX19 (BD Biosciences, MA5-17266; 1:1,000 diluted) (Supplementary Fig. 9).

[3] = tested on: PEX19-deficient human fibroblasts; experiment: Immunoblot analysis of PEX19 variants in transfected fibroblasts; type: cell-based
Excerpt: A bicistronic expression plasmid coding for eGFP-PTS1 and non-tagged PEX14 (pMF1220)[43] was kindly provided by Marc Fransen (Leuven, Belgium). pIRES2-HsPEX19-eGFP-PTS1 was constructed by replacing the open reading frame of PEX14 (BglII/SalI) with a DNA-cassette encoding the full-length open reading frame of human PEX19 as derived from BamHI/SalI digestion of pAH05 (ref. [44]). Single point mutations were introduced into the PEX19 sequence by Quickchange XL Site-directed Mutagenesis kit (Stratagene) using primer pairs (Supplementary Table 1). […] After 72 h of transfection, cells were subjected to fluorescence and immunofluorescence microscopy using polyclonal antiserum against human PEX14 (ref. [45]) (1:400 diluted) or monoclonal antibodies against human PEX19 (BD Biosciences, MA5-17266 Thermo Scientific; 1:400 diluted). […] Based on the appearance of eGFP-PTS1 fluorescence pattern, about 100 cells of each experiment were visually categorized into three classes, (i) full complementation of peroxisomal import as visualized by punctuate staining pattern, (ii) partial complementation as indicated by diffuse cytosolic staining with few dots, (iii) no complementation resulting in only cytosolic staining. […]

[4] = tested on: peroxisome biogenesis in cells; details: ref Sacksteder et al, Gould J Cell Biol 2000; cited from earlier work
Excerpt: page 14: remnants (and this is also what can be seen in these figures). To improve clarity and avoid confusion, the authors should correct these mistakes. […] The sentence on page 9 now reads “Cells that are not complemented by functional PEX19 show a cytosolic mislocalization of the peroxisomal marker protein GFP-PTS1 and a diffuse background immunolabelling of the peroxisomal membrane protein PEX14 that is different from the peroxisomal pattern and known to be due to mislocalization to mitochondria (Fig. 5c, ΔPEX19).” Accordingly, the legend of Figure 5 ...

[5] = molecular target: T1, non-farnesylated human PEX19 C-terminal domain (residues 161-299) (human, UniProt P40855 161-299); experiment: MST; fluorescein-PEX11B peptide (200 nM stock) constant, unlabelled PEX19 CTD serially diluted from 612 uM to 18 nM; 20 mM potassium phosphate pH 6.5, 50 mM NaCl, 20% methanol, 0.1% Tween; three measurements; details: both partners purified
T1 construct: Peroxisomal biogenesis factor 19 (PEX19), human, C-terminal domain, residues 161-299 with the native C-terminus and CaaX box; 15N- (or 13C/2H-) labelled for NMR; Expressed from pETM11; also called PEX19 CTD; non-farnesylated PEX19 CTD; source: E. coli BL21 (DE3), purified (Ni-NTA, TEV cleavage, size-exclusion chromatography)
T1 sequence (looked up): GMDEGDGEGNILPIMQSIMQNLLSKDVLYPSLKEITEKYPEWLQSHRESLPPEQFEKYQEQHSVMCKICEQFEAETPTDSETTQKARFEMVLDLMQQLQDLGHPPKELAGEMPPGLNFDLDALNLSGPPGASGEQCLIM

[6] = molecular target: T2, farnesylated human PEX19 C-terminal domain (residues 161-299) (human, UniProt P40855 161-299, farnesyl group on Cys296 (CaaX box)); experiment: as above; details: both partners purified
T2 construct: Peroxisomal biogenesis factor 19 (PEX19), human, C-terminal domain, residues 161-299, farnesylated at Cys296; Virtually complete farnesylation by SDS-PAGE and NMR; Isotope-labelled for NMR; also called farnesylated PEX19 CTD; source: E. coli BL21 (DE3), purified; farnesylated in vitro with S. cerevisiae farnesyl transferase, then Ni-NTA and Superdex 75
T2 sequence (looked up): T1 sequence (looked up)

[7] = Hydrophobic interaction chromatography; type: physicochemical
Method: Purified PEX19 CTD and variants were adjusted to a buffer containing 650 mM (NH4)2SO4 and 500 μg protein was subjected to equilibrated Butyl Sepharose FF column (20 mM potassium phosphate, pH 6.5, 50 mM NaCl and 650 mM (NH4)2SO4). After washing, bound protein was eluted with linear decreasing (NH4)2SO4 concentrations (650–0 mM (NH4)2SO4, 20 ml). Eluted proteins were detected using 280 nm absorption. The binding strength is indicated by the elution volume and correlates with protein hydrophobicity.

[8] = Stability of purified protein in solution; type: physicochemical
[9] = molecular target: T3, non-farnesylated human PEX19 C-terminal domain (residues 161-299) (human, UniProt P40855 161-299); experiment: FP
T3 chain: T1 sequence (looked up)

[10] = molecular target: T4, farnesylated human PEX19 C-terminal domain (residues 161-299) (human, UniProt P40855 161-299, farnesyl group on Cys296 (CaaX box)); experiment: FP; farnesylated PEX19
T4 chain: T1 sequence (looked up)

Molecule: farnesylated human PEX19 C-terminal domain (residues 161-299) (from UniProt P40855 161-299) (domain or fragment)
- fold increase in affinity over non-farnesylated PEX19 CTD [1]: 7 fold

B1: PEX19 C296S: full-length PEX19 variant which lacks the farnesylation site (protein, UniProt P40855 1-299, looked up, variant C296S)
chain: MAAAEEGCSVGAEADRELEELLESALDDFDKAKPSPAPPSTTTAPDASGPQKRSPGDTAKDALFASQEKFFQELFDSELASQATAEFEKAMKELAEEEPHLVEQFQKLSEAAGRVGSDMTSQQEFTSCLKETLSGLAKNATDLQNSSMSEEELTKAMEGLGMDEGDGEGNILPIMQSIMQNLLSKDVLYPSLKEITEKYPEWLQSHRESLPPEQFEKYQEQHSVMCKICEQFEAETPTDSETTQKARFEMVLDLMQQLQDLGHPPKELAGEMPPGLNFDLDALNLSGPPGASGEQSLIM
modifications: full-length
- functional complementation (in words) [2]: cannot fully restore PEX19 function
- cells showing restored peroxisomal protein transport (functional complementation) [2]: 46%
- cells showing restored peroxisomal protein transport (functional complementation) ([2]; listed as C296S): 50%
- expression and farnesylation in vivo [3]: lacks the farnesylation site

B2: wild type PEX19: full-length wild type human PEX19 expressed in fibroblasts (protein, UniProt P40855 1-299, looked up)
chain: B1 chain with S296C
modifications: full-length
notes: full-length wild type human PEX19 expressed in fibroblasts
- cells showing restored peroxisomal protein transport (functional complementation) [2]: 60%
- cells with rescue of peroxisome biogenesis [4]: ~50%

B3: N-terminally fluorescein-labelled PEX11B peptide (residues 186-200 of human PEX11B) (peptide)
peptide: fluorescein-LALKLRLQVLLLARV
notes: PEX11B, human, residues 186-200; also called PEX11-derived peptide; source: bought: Peptide Specialty Laboratories GmbH, Heidelberg
- Kd [5]: 29.8 ± 1.6 µM
- Kd [6]: 6.1 ± 0.4 µM

B4: M255R: PEX19 CTD variant M255R (helix α4) (protein)
chain: T1 sequence (looked up) with M95R
modifications: left off: His6, end not stated, cleaved
- functional complementation (in words) [2]: not capable of rescuing the ΔPEX19 phenotype; also recorded: completely abolishes PEX19 function
- elution volume after start of the gradient ([7]; Butyl Sepharose FF, linear decreasing (NH4)2SO4 650–0 mM, 20 ml, 20 mM potassium phosphate, pH 6.5, 50 mM NaCl, 280 nm, 500 μg protein): 5.00 mL
- hydrophobic interaction chromatography, effect on hydrophobicity (in words) ([7]; farnesylated vs non-farnesylated, compared to wild type): most pronounced effects
- stability in solution after purification [8]: not stable for long time in solution

B5: FITC-labelled ALDP peptide (62-AAKAGMNRVFLQRLL-76) (peptide)
peptide: {FITC}-AAKAGMNRVFLQRLL
- Kd [9]: 262 µM
- Kd [10]: 36 µM
